Results on four substances are retold here after paper PMC12556795.

In general, Kd refers to the equilibrium constant for the complex coming apart. A low value points to higher affinity.

Test [1] deals with DCC C-tail ΔP3 protein (residues 1121-1424) (H. sapiens) (UniProt P43146). In words: other fluorescence titration; initial fluorescence read on the MST instrument; Cy5-labelled ΔP3 at 5 nM, 60S subunits titrated from 5 uM to 0.15 nM; 20 mM Tris-HCl pH 7.5, 100 mM KCl, 2 mM Mg(OAc)2, 1 mM DTT, 0.5 mM EDTA, 0.25 M sucrose; 25 °C; 1:1 binding model; KD values called relative.
DCC C-tail ΔP3 protein (residues 1121-1424) (H. sapiens), sequence (P43146 1121-1424, stated change not applied): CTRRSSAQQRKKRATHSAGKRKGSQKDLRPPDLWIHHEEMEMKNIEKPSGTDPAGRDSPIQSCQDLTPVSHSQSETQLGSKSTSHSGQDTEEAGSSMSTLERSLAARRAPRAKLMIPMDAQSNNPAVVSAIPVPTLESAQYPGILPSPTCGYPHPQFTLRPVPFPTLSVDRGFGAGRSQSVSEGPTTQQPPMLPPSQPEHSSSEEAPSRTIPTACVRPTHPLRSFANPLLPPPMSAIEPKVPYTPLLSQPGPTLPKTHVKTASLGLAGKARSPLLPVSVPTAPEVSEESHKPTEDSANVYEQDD
In test [2] the target is DCC C-tail N29+P1 protein (residues 1121-1167) (H. sapiens) (UniProt P43146). The test is described as follows: MST; Cy5-labelled DCC protein (target) at 5 nM, purified 60S subunits (ligand) titrated from 5 uM to 0.15 nM over 16 capillaries; 20 mM Tris-HCl pH 7.5, 100 mM KCl, 2 mM Mg(OAc)2, 1 mM DTT, 0.5 mM EDTA, 0.25 M sucrose; 25 °C; 1:1 binding model; KD values called relative, not absolute (limited by 60S solubility).
DCC C-tail N29+P1 protein (residues 1121-1167) (H. sapiens), sequence (P43146 1121-1167): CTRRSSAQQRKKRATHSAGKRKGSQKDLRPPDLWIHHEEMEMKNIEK

Test [3] has as its target DCC C-tail ΔN29+P1 protein (residues 1168-1447) (H. sapiens) (UniProt P43146). The test is described as above.
Test [4] concerns the target 60S ribosomal subunit (rabbit) (rabbit (endogenous in reticulocyte lysate)) (UniProt P19949).
Test [5] shares this target. This is another data set of the same source.

DCC C-tail ΔP3 protein (residues 1121-1424), sequence (P43146 1121-1424, stated change not applied): as the sequence (P43146 1121-1424, stated change not applied) above
DCC C-tail N29+P1 protein (residues 1121-1167), sequence (P43146 1121-1167): as the sequence (P43146 1121-1167) above
DCC C-tail ΔN29+P1 protein (residues 1168-1447) (H. sapiens), sequence (P43146 1168-1447, stated change not applied): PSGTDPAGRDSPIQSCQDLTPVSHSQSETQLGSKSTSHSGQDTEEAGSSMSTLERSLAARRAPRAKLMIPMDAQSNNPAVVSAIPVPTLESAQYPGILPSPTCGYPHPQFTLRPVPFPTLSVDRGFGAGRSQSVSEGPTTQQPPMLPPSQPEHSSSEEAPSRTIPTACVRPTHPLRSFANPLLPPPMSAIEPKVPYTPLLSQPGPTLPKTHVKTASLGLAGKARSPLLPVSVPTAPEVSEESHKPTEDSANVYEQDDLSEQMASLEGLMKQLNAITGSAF

Regarding “60S ribosomal subunit (rabbit) (from UniProt P19949 1-297) (complex)”, the figures for the equilibrium dissociation constant (Kd) in test [1], in test [2] and in test [3] were 68.4 nM, 80.1 nM and 285 nM, respectively.

As for “DCC C-tail N29+P1 KRK→AAA protein (residues 1121-1167, alanines at 1140 to 1142) (from UniProt P43146 1121-1167) (domain or fragment)”, in test [4], the decrease of in vitro translation of a luciferase reporter mRNA in rabbit reticulocyte lysate by the DCC protein (3 and 6 μM) (% decrease of translation) came out at 20. In test [4], “DCC C-tail N29+P1 protein (residues 1121-1167) (from UniProt P43146 1121-1167) (domain or fragment)” gave a decrease of in vitro translation of a luciferase reporter mRNA in rabbit reticulocyte lysate by the DCC protein (3 and 6 μM) (% decrease of translation) of 90. In the case of “DCC C-tail ΔP3 protein (residues 1121-1424) (from UniProt P43146 1121-1424) (domain or fragment)”, in test [5], the inhibition of in vitro translation of a luciferase reporter mRNA in rabbit reticulocyte lysate by 3 μM DCC protein (% inhibition of translation) stood at 92.
